Values of other authors in US20080070838A1, “Growth Factor Treatment for Asthma” (University of Southampton, priority 2004, published 2008).

Tested on: airway fibrosis
Conditions: mouse, in vivo

With “TGFα: structural homologue of EGF and a ligand for the EGF receptor” as the substance, how does the airway fibrosis read?
The airway fibrosis was “marked airway fibrosis”.
